The EC50 is the concentration needed to bring the measured effect to its halfway point. A low value points to an effect from little substance.

From patent EP4786494A1 come the findings set out here.

In test [1] the target is human FGFR2 on cells (KATO-III gastric cancer cells; SNU-16 cells; Ba/F3 cells engineered to express human FGFR2b) (human) (UniProt P21802). As to the kind of experiment: flow cytometry on KATO-III cells expressing human FGFR2.
Test [2] deals with human FGFR2-his protein (huFGFR2-his) (human). Briefly: BLI epitope binning on FGFR2-his (HISK sensor), 200 nM antibodies; competitor: huA1B2-3.
Sequence of human FGFR2-his protein (huFGFR2-his) (human) (chain, as listed by the source limits assumed): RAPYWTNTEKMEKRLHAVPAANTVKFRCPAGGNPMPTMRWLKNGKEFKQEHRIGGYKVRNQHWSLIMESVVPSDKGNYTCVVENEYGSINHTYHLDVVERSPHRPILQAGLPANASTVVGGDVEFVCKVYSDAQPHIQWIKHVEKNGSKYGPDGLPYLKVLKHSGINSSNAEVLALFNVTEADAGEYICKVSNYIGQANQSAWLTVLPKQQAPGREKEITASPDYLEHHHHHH
Test [3] shares this target. As to the kind of experiment: BLI epitope binning on FGFR2-his (HISK sensor), 200 nM antibodies; competitor: huG11B8-5.
The target is the same in test [4]. Briefly: BLI epitope binning on FGFR2-his (HISK sensor), 200 nM antibodies; competitor: bemarituzumab.

B1: antibody A1B2 (murine chimeric anti-FGFR2 antibody) (antibody, human IgG1, kappa, V domains shown)
VH: EVQLQQSGAELVRPGASVKLSCTASGFNIKDYYMHWVKQRPEQGLEWIGRIDPEDGDTEYAPKFQGKATMTADTSSNTAYLQLSSLTSEDTAVYYCTTYYYVSTYEDYWGQGTTLTVSS
VL: QIVLTQSPAIMSASLGEEITLTCSASSSVSHMHWYQQKSGTSPKLLIYSTSNLASGVPSRFSGSGSGTFYSLTISSVEAEDAADYYCHHWSSWTFGGGTKLEIKR
In the case of B1, in test [1], the EC50 was found to be 0.336 nM. In other words, the sub-nanomolar range.

B2: antibody G11B8 (murine chimeric anti-FGFR2 antibody) (antibody, human IgG1, kappa, V domains shown)
VH: EVQLQQSGPELVKPGASVKIPCKASGYTFTDYNMDWVKQSHGKSLEWIGDINPKNGETFYNQKFKGKATLTVDRSSNTAYMELRSLTSEDTAVYFCAKRDLNWYFDYWGQGTTLTVSS
VL: DIQMTQSSSYLSVSLGGRVTITCKASDHINNWLAWYQQKPGNAPRLLISGATSLETGVPSRFSGSGSGKDYTLSITSLQTEDVATYYCQQYWSTPWTFGGGTKLEIKR
In test [1], B2 yielded an EC50 of 0.949 nM.

B3: antibody H3F7-a (murine chimeric anti-FGFR2 antibody) (antibody, human IgG1, kappa, V domains shown)
VH: EVQLQQSGPELVKPGASVKIPCKASGYTFTDYNMDWVKQSHGKSLEWIGDINPKNGETFYNQKFKGKATLTVDRSSSTAYMELRSLTSEDTAVYFCAKRDLNWYFDYWGQGTTLTVSS
VL: DIQMTQSSSYLSVSLGGRVTITCKASDHINNWLAWYQQKPGNAPRLLISGATSLETGVPSRFSGSGSGKDYTLSITSLQTEDVATYYCQQYWSTPWTFGGGTKLEIKR
B3 had a 50% effective concentration (EC50) in test [1] of 1.09 nM.

B4: bemarituzumab (antibody, human IgG1, kappa, V domains shown)
VH: QVQLVQSGAEVKKPGSSVKVSCKASGYIFTTYNVHWVRQAPGQGLEWIGSIYPDNGDTSYNQNFKGRATITADKSTSTAYMELSSLRSEDTAVYYCARGDFAYWGQGTLVTVSS
VL: DIQMTQSPSSLSASVGDRVTITCKASQGVSNDVAWYQQKPGKAPKLLIYSASYRYTGVPSRFSGSGSGTDFTFTISSLQPEDIATYYCQQHSTTPYTFGQGTKLEIKR
Turning to B4, the epitope binning value (%), not given in test [2] was 106%; in test [3], 36.8%; in test [4], 7.8%.

B5: antibody F6B6 (murine chimeric anti-FGFR2 antibody) (antibody, human IgG1, kappa, V domains shown)
VH: QVQLKQSGPGLVQPSQSLSITCTVSGFSLTNYGVHWVRQSPGKGLEWLGVIWSDGSTDYDAAFISRLSISTDNSKSQVFFKMNSLQAADTAIYYCARKGDYDYDNYAMDYWGQGTSVTVSS
VL: DVVITQSPATLSVTPGDSVSLSCRASQSISNNLHWYQQKSHESPRLLIKYASQSISGIPSRFSGSGSGTDFTLSINSVETEDFGMYFCQQSNSWPLTFGAGTKLELKR
B5: the EC50 in test [1] came out at 14.4 nM. This lies in the double-digit nanomolar range.

B6: humanized monoclonal antibody huA1B2-3 (antibody, human IgG1, kappa, V domains shown)
VH: EVQLVQSGAEVKKPGATVKISCKASGFNIKDYYMHWVQQAPGKGLEWMGRIDPEDGDTEYAEKFQGRVTITADTSTNTAYMELSSLRSEDTAVYYCTTYYYVSTYEDYWGQGTTVTVSS
VL: EIVLTQSPATLSLSPGERATLSCRASSSVSHMHWYQQKPGQAPKLLIYSTSNLASGVPARFSGSGSGTDYTLTISSLEPEDFAVYYCHHWSSWTFGGGTKVEIKR
As for B6, the epitope binning value (%), not given in test [2] is 10.2%; in test [3], 42.6%; in test [4] it was 95.7%.

B7: antibody D12D8 (murine chimeric anti-FGFR2 antibody) (antibody, human IgG1, kappa, V domains shown)
VH: QVQLQQSGAELARPGASVKLSCKASGYTFTNYGISWVKQRTGQGLEWIGEIYPRSGNTYYNEKFKGKATLTADKSSSTAYMELRSLTSEDSAVYFCARGDYSNSDYWGQGTTLTVSS
VL: DIQMTQTTSSLSASLGDRVTISCRASQDITDHLNWYQQKPDGTVKLLIYYTSRLHSGVPSRFSGSGSGTDYSLTISNLEQEDIATYFCQQGNTLPRTFGGGTKLEIKR
In test [1], B7 registered a half-maximal effective concentration (EC50) of 7.37 nM.
